These results are taken from patent publication WO2024096022A1 (dated 2024).

Experiment [1] addresses T1, human AdipoR2 protein (human, UniProt Q86V24 1-386).
T1 construct: Stably expressed on CHO cells together with EGFP as a separate expression marker; also called adiponectin receptor 2; hAdipoR2
T1 sequence: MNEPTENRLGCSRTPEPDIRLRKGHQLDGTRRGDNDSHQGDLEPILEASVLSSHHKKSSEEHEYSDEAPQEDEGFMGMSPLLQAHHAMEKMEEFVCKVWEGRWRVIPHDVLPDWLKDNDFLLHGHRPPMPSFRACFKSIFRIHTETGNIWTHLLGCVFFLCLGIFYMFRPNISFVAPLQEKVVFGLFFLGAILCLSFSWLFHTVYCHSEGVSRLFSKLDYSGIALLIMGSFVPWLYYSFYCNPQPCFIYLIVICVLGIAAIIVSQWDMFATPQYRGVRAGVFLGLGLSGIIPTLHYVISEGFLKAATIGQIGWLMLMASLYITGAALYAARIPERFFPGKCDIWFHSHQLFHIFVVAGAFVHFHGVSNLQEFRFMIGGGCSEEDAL
Kind of experiment: flow cytometry on human AdipoR2-expressing CHO cells against parental CHO cells. Background: A flow cytometer gives signals particle by particle.

Another experiment concerns the target T2, human AdipoR1 protein (human, UniProt Q96A54 1-375).
T2 construct: Stably expressed on CHO cells together with EGFP as a separate expression marker; also called adiponectin receptor 1; hAdipoR1
T2 sequence: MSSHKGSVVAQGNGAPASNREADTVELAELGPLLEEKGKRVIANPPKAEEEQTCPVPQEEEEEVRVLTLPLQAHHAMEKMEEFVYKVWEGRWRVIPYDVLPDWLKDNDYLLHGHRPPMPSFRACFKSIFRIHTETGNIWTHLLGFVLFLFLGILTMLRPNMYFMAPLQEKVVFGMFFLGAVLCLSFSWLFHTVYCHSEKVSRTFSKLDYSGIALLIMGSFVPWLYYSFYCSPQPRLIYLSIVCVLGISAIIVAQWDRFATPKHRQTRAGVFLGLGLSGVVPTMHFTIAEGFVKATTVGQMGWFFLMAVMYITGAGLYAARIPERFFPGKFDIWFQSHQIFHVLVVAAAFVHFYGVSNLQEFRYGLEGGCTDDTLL
Kind of experiment: flow cytometry on human AdipoR1-expressing CHO cells against parental CHO cells.

In experiment [2] the target is T1, human AdipoR2 protein. As to the kind of experiment: fluorescent ligand binding to cells stably expressing human AdipoR2 (8200 Cellular Detection System).

B1: mouse-human chimeric antibody WT (antibody, V domains shown)
VH: DVKLVESGEGLVKPGGSLKLSCAASGFTFSSYAMSWVRQTPEKRLEWVAYISSGGDYIYYADTVKGRFTISRDNARNTLYLQMSSLKSEDTAMYYCTRALEAMDYWGQGTSVTVSS
VL: ETTVTQSPASLSMAIGEKVTIRCITSTDIDDDMNWYQQKPGEPPKLLISEGNTLRPGVPSRFSSSGYGTDFVFTIENMLSEDVADYYCLQSDNLPFTFGSGTKLEIK
On to B1, for which the binding result in the experiment with human AdipoR2 protein [1] and with human AdipoR1 protein was “binds” each time.

B2: fluorescently labeled human plasma-derived adiponectin (ligand, UniProt Q15848 19-244, looked up)
chain: ETTTQGPGVLLPLPKGACTGWMAGIPGHPGHNGAPGRDGRDGTPGEKGEKGDPGLIGPKGDIGETGVPGAEGPRGFPGIQGRKGEPGEGAYVYRSAFSVGLETYVTIPNMPIRFTKIFYNQQNHYDGSTGKFHCNIPGLYYFAYHITVYMKDVKVSLFKKDKAMLFTYDQYQENNVDQASGSVLLHLEVGDQVWLQVYGEGERNGLYADNDNDSTFTGFLLYHDTN
modifications: fluorescent label (site not stated)
For the molecule B2, the binding result in the experiment with human AdipoR2 protein [2] is on record as “binds”.
